# Measured values published in paper PMC9482650, “Quantitative fragmentomics allow affinity mapping of interactomes” (Nature Communications, 2022).
# Positions count from the first letter of the chain named.
# T1: ARHGAP21, Q5T5U3
# T1 sequence (Q5T5U3 45-169, limits assumed, looked up): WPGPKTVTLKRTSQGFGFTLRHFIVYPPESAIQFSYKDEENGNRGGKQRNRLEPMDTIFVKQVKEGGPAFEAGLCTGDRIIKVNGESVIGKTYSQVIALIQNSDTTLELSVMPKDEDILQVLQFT
# T2: HTRA3, P83110
# T2 sequence (P83110 354-453, limits assumed, looked up): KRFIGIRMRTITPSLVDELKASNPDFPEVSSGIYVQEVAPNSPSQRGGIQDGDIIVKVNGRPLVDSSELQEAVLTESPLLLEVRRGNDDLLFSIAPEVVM
# T3: PDZRN3_1, Q9UPQ7
# T3 sequence (Q9UPQ7 244-349, limits assumed, looked up): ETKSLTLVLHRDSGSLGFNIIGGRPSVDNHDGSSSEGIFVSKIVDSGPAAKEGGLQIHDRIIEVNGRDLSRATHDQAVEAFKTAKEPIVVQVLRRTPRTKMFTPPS
# T4: MPP7, Q5T2T1
# T4 sequence (Q5T2T1 134-230, limits assumed, looked up): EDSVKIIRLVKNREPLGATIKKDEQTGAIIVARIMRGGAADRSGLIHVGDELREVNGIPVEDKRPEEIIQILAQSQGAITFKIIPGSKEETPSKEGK
# T5: LIN7B, Q9HAP6
# T5 sequence (Q9HAP6 88-185, limits assumed, looked up): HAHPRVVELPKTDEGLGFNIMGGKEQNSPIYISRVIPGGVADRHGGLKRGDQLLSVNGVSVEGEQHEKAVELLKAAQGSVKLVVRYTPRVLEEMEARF
# T6: LIN7C, Q9NUP9
# T6 sequence (Q9NUP9 88-185, limits assumed, looked up): T5 sequence (Q9HAP6 88-185, limits assumed, looked up) with A2S, D13E, V35I, V40I, Q65H, S79K, R89K, A96S
# T7: DLG3_2, Q92796
# T7 sequence (Q92796 221-321, limits assumed, looked up): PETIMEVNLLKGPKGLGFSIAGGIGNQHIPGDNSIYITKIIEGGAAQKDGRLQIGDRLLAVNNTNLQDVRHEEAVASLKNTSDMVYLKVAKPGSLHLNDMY
# T8: GRIP1_3, Q9Y3R0
# T8 sequence (Q9Y3R0 247-346, limits assumed, looked up): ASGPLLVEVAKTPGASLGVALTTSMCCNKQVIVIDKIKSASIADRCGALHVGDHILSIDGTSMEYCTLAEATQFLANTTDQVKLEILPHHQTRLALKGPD
# T9: DFNB31_2, Q9P202
# T9 sequence (Q9P202 274-371, limits assumed, looked up): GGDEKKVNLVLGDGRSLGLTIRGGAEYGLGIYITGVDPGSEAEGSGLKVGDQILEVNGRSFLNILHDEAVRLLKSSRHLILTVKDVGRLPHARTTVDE
# T10: GRIP1_4, Q9Y3R0
# T10 sequence (Q9Y3R0 467-571, limits assumed, looked up): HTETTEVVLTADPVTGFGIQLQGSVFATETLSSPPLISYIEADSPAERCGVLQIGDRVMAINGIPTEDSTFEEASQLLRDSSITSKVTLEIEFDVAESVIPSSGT
# T11: APBA1_1, Q02410
# T11 sequence (Q02410 651-752, limits assumed, looked up): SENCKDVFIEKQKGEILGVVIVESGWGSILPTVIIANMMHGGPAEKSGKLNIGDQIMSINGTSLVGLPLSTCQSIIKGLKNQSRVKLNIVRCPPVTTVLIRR
# B1: SAPCD1, Q5SSQ6 (peptide)
# chain: TKGPRGPTRV
# Biological target: FRMPD4, Q14CM0
# Sequence (Q14CM0 67-160): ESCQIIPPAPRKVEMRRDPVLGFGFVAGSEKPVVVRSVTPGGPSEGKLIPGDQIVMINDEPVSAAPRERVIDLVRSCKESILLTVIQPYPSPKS
# Experiment: holdup assay
# Parameters: key: below the threshold = too weak to quantify, mostly under pKd 3.1 to 4
# Conditions: plain residues with an end cap or a label only (N-terminal biotin on a linker: ado-ado)
row,pKd,Binder
1,below the threshold,B1

# Biological target: NHERF4_2, Q86UT5
# Sequence (Q86UT5 220-308): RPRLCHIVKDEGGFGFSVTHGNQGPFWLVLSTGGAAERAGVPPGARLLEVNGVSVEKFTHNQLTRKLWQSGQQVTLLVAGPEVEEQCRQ
# Experiment: holdup assay
# Parameters: key: below the threshold = too weak to quantify, mostly under pKd 3.1 to 4
# Conditions: plain residues with an end cap or a label only (N-terminal biotin on a linker: ado-ado)
row,pKd,Binder
1,below the threshold,B1

# Biological target: T1, ARHGAP21, Q5T5U3
# Experiment: holdup assay
# Parameters: key: below the threshold = too weak to quantify, mostly under pKd 3.1 to 4
# Conditions: plain residues with an end cap or a label only (N-terminal biotin on a linker: ado-ado)
row,pKd,Binder
1,below the threshold,B1

# Biological target: T2, HTRA3, P83110
# Experiment: holdup assay
# Parameters: key: below the threshold = too weak to quantify, mostly under pKd 3.1 to 4
# Conditions: plain residues with an end cap or a label only (N-terminal biotin on a linker: ado-ado)
row,pKd,Binder
1,below the threshold,B1

# Biological target: T3, PDZRN3_1, Q9UPQ7
# Experiment: holdup assay
# Parameters: key: below the threshold = too weak to quantify, mostly under pKd 3.1 to 4
# Conditions: plain residues with an end cap or a label only (N-terminal biotin on a linker: ado-ado)
row,pKd,Binder
1,4.03,B1

# Biological target: MAGI2_4, Q86UL8
# Sequence (Q86UL8 772-865): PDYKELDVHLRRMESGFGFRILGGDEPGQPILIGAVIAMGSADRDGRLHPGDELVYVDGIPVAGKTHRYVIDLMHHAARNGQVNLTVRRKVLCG
# Experiment: holdup assay
# Parameters: key: below the threshold = too weak to quantify, mostly under pKd 3.1 to 4
# Conditions: plain residues with an end cap or a label only (N-terminal biotin on a linker: ado-ado)
row,pKd,Binder
1,below the threshold,B1

# Biological target: GORASP2, Q9H8Y8
# Experiment: holdup assay
# Parameters: key: below the threshold = too weak to quantify, mostly under pKd 3.1 to 4
# Conditions: plain residues with an end cap or a label only (N-terminal biotin on a linker: ado-ado)
row,pKd,Binder
1,3.96,B1

# Biological target: T4, MPP7, Q5T2T1
# Experiment: holdup assay
# Parameters: key: below the threshold = too weak to quantify, mostly under pKd 3.1 to 4
# Conditions: plain residues with an end cap or a label only (N-terminal biotin on a linker: ado-ado)
row,pKd,Binder
1,below the threshold,B1

# Biological target: T5, LIN7B, Q9HAP6
# Experiment: holdup assay
# Parameters: key: below the threshold = too weak to quantify, mostly under pKd 3.1 to 4
# Conditions: plain residues with an end cap or a label only (N-terminal biotin on a linker: ado-ado)
row,pKd,Binder
1,below the threshold,B1

# Biological target: MAGI2_3, Q86UL8
# Sequence (Q86UL8 600-682): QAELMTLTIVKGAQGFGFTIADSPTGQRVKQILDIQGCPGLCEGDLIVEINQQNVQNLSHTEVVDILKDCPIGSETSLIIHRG
# Experiment: holdup assay
# Parameters: key: below the threshold = too weak to quantify, mostly under pKd 3.1 to 4
# Conditions: plain residues with an end cap or a label only (N-terminal biotin on a linker: ado-ado)
row,pKd,Binder
1,4.69,B1

# Biological target: GIPC2, Q8TF65
# Sequence (Q8TF65 112-203): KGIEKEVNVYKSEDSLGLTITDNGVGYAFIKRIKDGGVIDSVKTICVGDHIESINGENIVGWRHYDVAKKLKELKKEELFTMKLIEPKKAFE
# Experiment: holdup assay
# Parameters: key: below the threshold = too weak to quantify, mostly under pKd 3.1 to 4
# Conditions: plain residues with an end cap or a label only (N-terminal biotin on a linker: ado-ado)
row,pKd,Binder
1,below the threshold,B1

# Biological target: GRID2IP_1, A4D2P6
# Sequence (A4D2P6 1-87): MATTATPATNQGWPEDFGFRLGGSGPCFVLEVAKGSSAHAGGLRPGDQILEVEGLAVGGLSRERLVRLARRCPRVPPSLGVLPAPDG
# Experiment: holdup assay
# Parameters: key: below the threshold = too weak to quantify, mostly under pKd 3.1 to 4
# Conditions: plain residues with an end cap or a label only (N-terminal biotin on a linker: ado-ado)
row,pKd,Binder
1,below the threshold,B1

# Biological target: T6, LIN7C, Q9NUP9
# Experiment: holdup assay
# Parameters: key: below the threshold = too weak to quantify, mostly under pKd 3.1 to 4
# Conditions: plain residues with an end cap or a label only (N-terminal biotin on a linker: ado-ado)
row,pKd,Binder
1,below the threshold,B1

# Biological target: GORASP1, Q9BQQ3
# Sequence (Q9BQQ3 1-208): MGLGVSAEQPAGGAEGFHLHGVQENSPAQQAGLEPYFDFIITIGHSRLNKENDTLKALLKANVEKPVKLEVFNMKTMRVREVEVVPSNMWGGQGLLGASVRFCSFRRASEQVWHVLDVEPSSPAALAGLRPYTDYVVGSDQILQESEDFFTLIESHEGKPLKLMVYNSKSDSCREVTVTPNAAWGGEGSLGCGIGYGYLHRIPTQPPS
# Experiment: holdup assay
# Parameters: key: below the threshold = too weak to quantify, mostly under pKd 3.1 to 4
# Conditions: plain residues with an end cap or a label only (N-terminal biotin on a linker: ado-ado)
row,pKd,Binder
1,3.57,B1

# Biological target: LNX1_1, Q8TBB1
# Sequence (Q8TBB1 261-371): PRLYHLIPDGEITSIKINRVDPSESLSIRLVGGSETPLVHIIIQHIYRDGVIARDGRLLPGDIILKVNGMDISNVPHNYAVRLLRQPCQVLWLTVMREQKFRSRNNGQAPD
# Experiment: holdup assay
# Parameters: key: below the threshold = too weak to quantify, mostly under pKd 3.1 to 4
# Conditions: plain residues with an end cap or a label only (N-terminal biotin on a linker: ado-ado)
row,pKd,Binder
1,below the threshold,B1

# Biological target: Inadl_2, Q8NI35
# Sequence (Q8NI35 238-335): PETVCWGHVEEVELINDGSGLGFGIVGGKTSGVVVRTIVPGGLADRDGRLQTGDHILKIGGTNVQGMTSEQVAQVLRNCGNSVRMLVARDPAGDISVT
# Experiment: holdup assay
# Parameters: key: below the threshold = too weak to quantify, mostly under pKd 3.1 to 4
# Conditions: plain residues with an end cap or a label only (N-terminal biotin on a linker: ado-ado)
row,pKd,Binder
1,below the threshold,B1

# Biological target: T7, DLG3_2, Q92796
# Experiment: holdup assay
# Parameters: key: below the threshold = too weak to quantify, mostly under pKd 3.1 to 4
# Conditions: plain residues with an end cap or a label only (N-terminal biotin on a linker: ado-ado)
row,pKd,Binder
1,4.13,B1

# Biological target: CASK, O14936
# Sequence (O14936 487-570): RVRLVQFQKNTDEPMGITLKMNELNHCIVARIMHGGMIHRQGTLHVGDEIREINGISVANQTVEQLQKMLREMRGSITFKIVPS
# Experiment: holdup assay
# Parameters: key: below the threshold = too weak to quantify, mostly under pKd 3.1 to 4
# Conditions: plain residues with an end cap or a label only (N-terminal biotin on a linker: ado-ado)
row,pKd,Binder
1,below the threshold,B1

# Biological target: T8, GRIP1_3, Q9Y3R0
# Experiment: holdup assay
# Parameters: key: below the threshold = too weak to quantify, mostly under pKd 3.1 to 4
# Conditions: plain residues with an end cap or a label only (N-terminal biotin on a linker: ado-ado)
row,pKd,Binder
1,below the threshold,B1

# Biological target: T9, DFNB31_2, Q9P202
# Experiment: holdup assay
# Parameters: key: below the threshold = too weak to quantify, mostly under pKd 3.1 to 4
# Conditions: plain residues with an end cap or a label only (N-terminal biotin on a linker: ado-ado)
row,pKd,Binder
1,below the threshold,B1

# Biological target: T10, GRIP1_4, Q9Y3R0
# Experiment: holdup assay
# Parameters: key: below the threshold = too weak to quantify, mostly under pKd 3.1 to 4
# Conditions: plain residues with an end cap or a label only (N-terminal biotin on a linker: ado-ado)
row,pKd,Binder
1,below the threshold,B1

# Biological target: DLG4_1, P78352
# Sequence (P78352 62-152): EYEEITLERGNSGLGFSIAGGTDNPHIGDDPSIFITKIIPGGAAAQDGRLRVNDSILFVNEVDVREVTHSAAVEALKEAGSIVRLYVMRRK
# Experiment: holdup assay
# Parameters: key: below the threshold = too weak to quantify, mostly under pKd 3.1 to 4
# Conditions: plain residues with an end cap or a label only (N-terminal biotin on a linker: ado-ado)
row,pKd,Binder
1,4.48,B1

# Biological target: GRIP2_5, Q9C0E4
# Sequence (Q9C0E4 544-642): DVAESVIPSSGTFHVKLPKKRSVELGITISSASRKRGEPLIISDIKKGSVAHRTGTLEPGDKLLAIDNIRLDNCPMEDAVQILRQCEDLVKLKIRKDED
# Experiment: holdup assay
# Parameters: key: below the threshold = too weak to quantify, mostly under pKd 3.1 to 4
# Conditions: plain residues with an end cap or a label only (N-terminal biotin on a linker: ado-ado)
row,pKd,Binder
1,below the threshold,B1

# Biological target: FRMPD3, Q5JV73
# Sequence (Q5JV73 12-100): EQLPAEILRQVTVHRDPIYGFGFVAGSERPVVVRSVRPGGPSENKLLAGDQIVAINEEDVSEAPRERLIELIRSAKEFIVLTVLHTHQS
# Experiment: holdup assay
# Parameters: key: below the threshold = too weak to quantify, mostly under pKd 3.1 to 4
# Conditions: plain residues with an end cap or a label only (N-terminal biotin on a linker: ado-ado)
row,pKd,Binder
1,below the threshold,B1

# Biological target: T11, APBA1_1, Q02410
# Experiment: holdup assay
# Parameters: key: below the threshold = too weak to quantify, mostly under pKd 3.1 to 4
# Conditions: plain residues with an end cap or a label only (N-terminal biotin on a linker: ado-ado)
row,pKd,Binder
1,below the threshold,B1
